# Test results taken from patent US20080280298A1, “SATB1: A DETERMINANT OF MORPHOGENESIS AND TUMOR METASTASIS” (The Regents of the University of California, priority 2005, published 2008).
# How the values were obtained:
# SATB1 = SATB1 expression in MDA-MB-231 cells stably transfected with shRNA (Western blot, real-time RT-PCR); assay type: cell-based, human; conditions: for Expression of SATB1 was lowered by / SATB1 expression levels: MDA-MB-231 cells stably expressing the shRNA; for SATB1 expression levels: remaining expression; for SATB1 expression (in words): Western blot and quantitative RT-PCR, compared to parental MDA-MB-231 cells
# Procedure: It was then tested whether suppression of SATB1 level in the highly metastatic MDA-MB-231 cells would affect their aggressiveness. Short hairpin-interfering RNAs (shRNA) were successfully designed to target SATB1 expression and are identified herein as SEQ ID NOs: 4-7.
# Two shRNAs were designed according to SATB1 sequence (GenBank Accession No. NM_002971, hereby incorporated by reference) using siRNA Target Finder (Ambion, Austin, Tex.); The sequences of each oligoduplex were targeted as follows: shRNA2423, 5′-GGATTTGGAAGAGAGTGTC-3′ (SEQ ID NO: 8), or shRNA2595, 5′-GTCCACCTTGTCTTCTCTC-3′ (SEQ ID NO: 9). The oligoduplexes were cloned into the plasmid pSUPER (Oligoengine, Seattle, Wash.). Prepared DNAs were transfected into the aggressive breast cancer cell line MDA-MB-231 by lipofectamine 2000 (Invitrogen) and successfully transfected cells were selected by puromycin at 2 μg/ml or G418 at 1.5 mg/ml from 24 h after transfection. Single MDA-MB-231 cell clone stably expressing either shRNA2423 or shRNA2595 is designated SATB1-shRNA1 MDA or SATB1-shRNA2 MDA cells, respectively. For overexpression of SATB1, full length of SATB1 including 3′UTR was cloned into retroviral vector pLXSN (Clontech, Mountain View, Calif.), and the viral solution was produced using PT67 package cell lines. Hs578T cells were infected with this viral solution, and stably infected cells were selected by G418 at 0.8 mg/ml for 5 days. The status of SATB1 level in manipulated MDA-MB-231 and Hs578T cells were examined by Western blot and real-time RT-PCR.
# To evaluate the change of gene expression level depending on SATB1 status, semi-quantitative or real-time RT-PCR analysis of selected genes was performed (primer sequences are available upon request). Total RNA was extracted for cell lines using TR1 reagent (Sigma) followed by RNA clean-up with RNeasy Mini kit (Qiagen, Valencia, Calif.). For semi-quantitative RT-PCR, 5 μg of total RNA was reverse-transcribed into single stranded cDNA using Superscript II RNaseH-reverse transcriptase (Invitrogen) according to the protocol supplied with the kit. PCR cycle was controlled starting from 25 to 40 cycles upon gene-specific primers (20 ng of cDNA/reaction). Each cycle consisted of the following steps, using GeneAmp PCR system 9700 (PerkinElmer Inc., Fremont, Calif.); 94° C. for 30 s, 55° C. for 30 s, and 72° C. for 60 s. PCR products were separated on 1.5% agarose gels and visualized them by staining with ethidium bromide. SYBR Green PCR Core Reagents system was used for real-time monitoring of amplification on ABI 7500 Fast Real-time PCR System (Applied Biosystems, Foster City, Calif.). Absolute quantification method was employed to quantify target DNA fragments in triplicate with following cycling condition; 95° C. for 2 min, followed by 40 cycles of 95° C. for 3 s and 60° C. for 30 s.
# MDA-MB-231 cells [1] = test: Cell growth assay on plastic (2D) and Matrigel (3D); assay type: cell-based, human; conditions: 2D and 3D cultures up to 11 days, compared with parental cell line and control cells
# Text: Reduction of cell proliferation rate. We examined whether loss of SATB1 expression affects cancer cell proliferation by culturing SATB1-shRNA1 MDA and SATB1-shRNA2 MDA cells on plastic dish {two-dimensional (2D) culture} or on a reconstituted basement membrane derived from Engelbreth-Holm-Swarm Tumor (Matrigel™) {three-dimensional (3D) culture}.
# Cell Growth Assay. […] Growth medium were renewed every 4 days. Cells were harvested by trypsin treatment, and counted at each time point using a cell counter (Beckman Coulter, Inc.; Fullerton, Calif.) and haematocytometer. […] Cells were treated with dispase (BD Biosciences, Inc.) for 2 h at 37° C. to be isolated from Matrigel, incubated with trypsin for further 5 min, and counted using a haematocytometer. […]
# MDA-MB-231 cells [2] = test: Cell morphology and immunostaining in 3D Matrigel culture; assay type: cell-based, human; conditions: F-actin, β-catenin, integrin α6 immunostaining
# Procedure: Changes in cell morphology. Referring now to FIG. 5, phase contrast micrographs of MDA-MB-231 control cells (control shRNA) or SATB1-shRNA1 MDA cells (SATB1-shRNA1) cultured on plastic (2D) and matrigel (3D) are shown. Major differences in cell morphology were observed when SATB1-shRNA1 MDA cells were grown in 3D culture, compared to control cells. The cell morphology was changed from stellate-like scattered (MDA-MB-231 with control shRNA) to spherical structures (MDA-MB-231 with SATB1-shRNA). […] In addition, MDA-MB-231 cells expressing SATB1-shRNA were able to basally deposit and organize a basement membrane on Matrigel, showing the characteristic acini formation, even though there was a minor difference in morphology as observed in MCF10A control cells.
# Immunostaining of cells in culture. Total 1×10^4 cells mixed with Matrigel (5 mg/mL) were plated in 6-well plates pre-coated in a thick layer (1 mm) of Matrigel. Solidified Matrigel was overlaid with Growth medium (DMEM), and renewed at every 4 days. Colony formation and cell morphology was observed under light microscopy after 3 days to 14 days.
# Cells were fixed in 4% paraformaldehyde, permeablized in 0.1% Triton X100, and blocked in 5% BSA. […] Staining was detected with secondary Alexa Fluor 488 and/or Alexa Fluor 594 Abs (Molecular Probes). […]
# MDA-MB-231 cells [3] = test: Boyden chamber invasion assay; assay type: cell-based, human; conditions: remaining invasiveness
# Procedure: Boyden chamber assay. Boyden chamber chemo-migration assays were performed using a 24-well chemotaxis chamber (BD biosciences, Inc.). Breast cancer cells were seeded in triplicate at 50,000 cells/well onto the upper chambers with a 8 μm polycarbonate filter membrane coated with diluted Matrigel (10-25%) (BD biosciences, Inc.), and incubated at 37° C. in humidified 5% CO2 for 20 hrs. Conditioned media derived from NIH3T3 fibroblast cultures was used as a chemoattractant in the lower chambers. The migrated cells on underside of chambers were fixed in 10% (wt/vol) buffered-formalin and stained with crystal violet. After removal of cells remaining in the top chamber with a cotton swab, the numbers of cells that had migrated through the pores were assessed by light microscopy.
# MDA-MB-231 cells [4] = test: Tumor growth in mammary fat pads of athymic nude mice; assay type: in vivo, mouse; conditions: 6 mice, clone or pool of cells; controls formed large tumors within 39 days (6/6)
# Text: We injected control and SATB1-shRNA1 cells into the fourth mammary fat pads of athymic nude mice and monitored tumor growth.
# MDA-MB-231 cells [5] = test: Gene expression profiling (Affymetrix and Codelink microarrays); assay type: cell-based, human; conditions: >1.5-fold, under both plastic and Matrigel culture, versus control shRNA
# Text: We performed gene expression profiling on MDA-MB-231 cells expressing either control shRNA or SATB1-shRNA1 grown in culture. […] We also categorized those affected genes based on the gene ontology (GO)(URL: <http//www.geneontology.org/index.shtml>) annotation.
# MDA-MB-231 cells [6] = test: Experimental metastasis assay, tail vein injection into athymic mice, lung nodules; assay type: in vivo, mouse; conditions: 1×10^6 cells i.v., nine weeks, six mice
# Procedure: The removal of SATB1 from MDA-MB-231 (aggressive) cells diminished metastatic activity: SATB1-shRNA1 MDA, SATB1-shRNA2 MDA, and control cells (1×10^6 cells) were injected intravenously into the lateral tail vein of 6-week-old athymic mice to evaluate metastasis of these cancer cell lines to lung. In mice, the metastasis of orthotopically grown tumors derived from human MDA-MB-231 cells is a relatively rare event. Therefore, by directly introducing cells into the circulation, we examined the requirement of SATB1 in cancer cell survival in circulation and extravasation to and growth in the lung. By nine weeks after tumor-cell injection, the lungs of mice injected with the control cells had formed numerous nodules, ranging in number from 125 to 160 per lung in all six mice analyzed (FIG. 11a,b). […]
# 1×10^6 cells MDA-MB-231 cells expressing control-shRNA, SATB1-shRNA1 or SATB1-shRNA2 MDA cells were injected into the tail veins of each mouse, and lungs were examined for metastatic nodules (arrows) 9 weeks later. […] In FIG. 11b, total numbers of metastatic lung nodules from individual mice were counted under a dissection microscope. For lungs of representative mice indicated, human SATB1 expression levels in human breast cancer cells colonized in lungs were analyzed by RT-PCR using human GAPDH as a loading control, with the use of human SATB1 and GAPDH specific oligomers. […]
Molecule,Expression of SATB1 was lowered by (SATB1) [%],SATB1 expression levels (SATB1),SATB1 expression (in words) (SATB1),proliferation rates (MDA-MB-231 cells [1]),cell morphology in 3D culture (MDA-MB-231 cells [2]),invasiveness compared with host MDA-MB-231 cells (MDA-MB-231 cells [3]) [%],tumor growth in mammary fat pads (MDA-MB-231 cells [4]),downregulated genes upon SATB1 depletion (Tree 1) (MDA-MB-231 cells [5]) [genes],upregulated genes upon SATB1 depletion (Tree 2) (MDA-MB-231 cells [5]) [genes],lung metastases observed (in words) (MDA-MB-231 cells [6]),number of lung metastases (nodules per lung) (MDA-MB-231 cells [6]; control cells 125 to 160 per lung)
"SATB1-shRNA1: shRNA against the SATB1 coding region, target GGATTTGGAAGAGAGTGTC (SEQ ID NO: 8); SEQ ID NOs: 4/5, expressed from pSUPER-puro (nucleic acid, target site or template, no part of the molecule) chain 1: GATCCCCGGATTTGGAAGAGAGTGTCTTCAAGAGAGACACTCTCTTCCAAATCCTTTTTGGAAA chain 2: AGCTTTTCCAAAAAGGATTTGGAAGAGAGTGTCTCTCTTGAAGACACTCTCTTCCAAATCCGGG",70,30.4%±3.7,greatly reduced,significantly reduced,"organized and polarized morphology, forming acinus-like structures",20,either no tumors or greatly reduced tumor growth,409,456,–,–
"SATB1-shRNA2: shRNA against the SATB1 3′UTR, target GTCCACCTTGTCTTCTCTC (SEQ ID NO: 9); SEQ ID NOs: 6/7, expressed from pSUPER-puro (nucleic acid, the letters are possibly those of the target site) chain 1: GATCCCCGTCCACCTTGTCTTCTCTCTTCAAGAGAGAGAGAAGACAAGGTGGACTTTTTGGAAA chain 2: AGCTTTTCCAAAAAGTCCACCTTGTCTTCTCTCTCTCTTGAAGAGAGAAGACAAGGTGGACGGG",90,12.5%±5.2,greatly reduced,significantly reduced,"organized and polarized morphology, forming acinus-like structures",20,–,–,–,not observed in five out of six mice,five
